Biological target: Sumo-tagged Drosophila Spd-2 C-terminal half (Spd-2 697-1146) P817D, phosphorylated in vitro by human PLK1 (UniProt Q9VV79)
Experiment: SEC-MALS
Details: 50 µM protein, phosphorylated in vitro with recombinant human PLK1 kinase; parent: est. 0.50; read off a plot

UniProt Q9VV79, sequence (Q9VV79 entry or part of it P817D | P817D): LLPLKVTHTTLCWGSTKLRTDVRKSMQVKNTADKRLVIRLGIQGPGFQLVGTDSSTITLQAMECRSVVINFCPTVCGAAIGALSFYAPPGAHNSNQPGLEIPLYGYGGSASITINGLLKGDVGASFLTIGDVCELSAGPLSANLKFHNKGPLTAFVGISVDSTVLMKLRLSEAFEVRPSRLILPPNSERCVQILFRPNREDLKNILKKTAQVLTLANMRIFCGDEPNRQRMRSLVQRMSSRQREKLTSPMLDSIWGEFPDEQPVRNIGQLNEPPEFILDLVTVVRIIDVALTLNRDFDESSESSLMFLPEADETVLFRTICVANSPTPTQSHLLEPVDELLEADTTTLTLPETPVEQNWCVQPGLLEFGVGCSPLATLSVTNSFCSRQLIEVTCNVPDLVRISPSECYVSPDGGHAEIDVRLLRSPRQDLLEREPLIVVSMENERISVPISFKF

response: 0.14
Substance: Sumo-tagged Drosophila Spd-2 C-terminal half (Spd-2 697-1146), wild type, phosphorylated in vitro by human PLK1 (from UniProt Q9VV79) P817D

— PMC11922060
